Assay results taken from PMC11992055, “Identification of RING E3 pseudoligases in the TRIM protein family” (Nature Communications, 2025).

B1: TRIM6 RING domain (residues 1-87), wild type (domain or fragment, human, UniProt Q9C030 1-87, looked up)
chain: MTSPVLVDIREEVTCPICLELLTEPLSIDCGHSFCQACITPNGRESVIGQEGERSCPVCQTSYQPGNLRPNRHLANIVRRLREVVLG
notes: TRIM6, human, RING domain, residues 1-87; Forms dimers in solution by SEC-MALLS; The His6 tag is HRV 3C cleavable; also called TRIM6 RING WT; source: E. coli BL21, purified (Ni-NTA, size-exclusion chromatography)
B2: TRIM22 RING domain (residues 1-87), wild type (domain or fragment, human, UniProt Q8IYM9 1-87, looked up)
chain: MDFSVKVDIEKEVTCPICLELLTEPLSLDCGHSFCQACITAKIKESVIISRGESSCPVCQTRFQPGNLRPNRHLANIVERVKEVKMS
notes: TRIM22, human, RING domain, residues 1-87; Monomer-dimer equilibrium by SEC-MALLS; The His6 tag is HRV 3C cleavable; also called TRIM22 RING WT; source: E. coli BL21, purified (Ni-NTA, size-exclusion chromatography)

Molecular target: the molecule itself
Experiment: SEC-MALS; SEC-MALLS; Superdex 200 Increase 10/300; 120 µl sample at 1–6 mg/ml; 50 mM HEPES pH 7.5, 150 mM NaCl, 0.5 mM TCEP, 3 mM NaN3; 0.5 ml/min

Protein	stoichiometry N
B1	2
B2	2
